Laboratory results from the supplement of paper PMC7877785.
± gives the uncertainty stated by the source.

Assay: self-splicing fitness, log relative to wild type (ln ratio); higher = more splicing; Tetrahymena group I intron in knt gene, E. coli kanamycin selection, DiMSum; sequences stand for … in CUCUCU…GGAGGGAAAAGUUAUCAGGCAUGCACCUGGUAGCUAGUCUUUAAACCAAUAGAUUGCAUCGGUUUAAAAGGCAAGACCGUCAAAUUGCGGGAAAGGGGUCAACAGCCGUUCAGUACCAAGUCUCAGGGGAAACUUUGAGAUGGCCUUGCAAAGGGUAUGGUAAUAAGCUGACGGACAUGGUCCUAACCACGCAGCCAAGUCCUAAGUCAACAGAUCUUCUGUUGAUAUGGAUGCAGUUCACAGACUAAAUGUCGGUCGGGGAAGAUGUAUUCUUCUCAUAAGAUAUAGUCGGACCUCUCCUUAAUGGGAGCUAGCGGAUGAAGUGAUGCAACACUGGAGCCGCUGGGAACUAAUUUGUAUGCGAAAGUAUAUUGAUUAGUUUUGGAGUACUCGUGGUCG
In short: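 Six replicate transformations of E. coli BL21(DE3) with a pET-22b(+) library were grown overnight at 37°C or 30°C. The library randomised all eight P1ex-region intron nucleotides, the intron lying in the knt kanamycin-resistance gene, and plates were LB agar with or without 25 μg/mL kanamycin plus 100 μg/mL carbenicillin, 50 μM IPTG and 0.2% rhamnose. Pooled colonies were amplicon-sequenced on an Illumina HiSeq 2500, and fitness is the DiMSum error-weighted combination of wild-type-normalised replicate fold changes, kanamycin versus none.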

| Sequence | self-splicing fitness (ln) (30 °C) | self-splicing fitness (ln) (37 °C) |
| --- | --- | --- |
| GCUUAGCAAUAUUACGGCCC | 0.0255 ± 0.31 | – |
| GCUUAGCAAUAUUACGGGUC | -3.24 ± 0.23 | -2.31 ± 0.28 |
| GCUUAGCAAUAUUACGGUCG | -1.78 ± 0.12 | -1.41 ± 0.16 |
| GCUUAGCAAUAUUACGGUGG | -2.24 ± 0.19 | -2.38 ± 0.28 |
| GCUUAGCAAUAUUACGGUUU | -1.4 ± 0.068 | -0.908 ± 0.074 |
| GCUUAGCAAUAUUACGUAAG | -2.18 ± 0.12 | -0.181 ± 0.17 |
| GCUUAGCAAUAUUACGUCUC | -0.196 ± 0.096 | 0.386 ± 0.1 |
| GCUUAGCAAUAUUACGUGCC | -3.64 ± 0.35 | -0.354 ± 0.14 |
| GGAAAGCAAUAUUACGACUG | -1.93 ± 0.15 | -0.134 ± 0.19 |
| GGAAAGCAAUAUUACGAUAG | -3.1 ± 0.34 | -1.16 ± 0.2 |
| GGAAAGCAAUAUUACGCAAA | -2.42 ± 0.28 | -1.05 ± 0.25 |
| GGAAAGCAAUAUUACGCAGG | -2.91 ± 0.15 | -2.71 ± 0.22 |
| GGAAAGCAAUAUUACGCCAG | – | -0.912 ± 0.35 |
| GGAAAGCAAUAUUACGCCCG | -0.767 ± 0.21 | -0.0766 ± 0.23 |
| GGAAAGCAAUAUUACGCGCG | -0.394 ± 0.08 | -0.275 ± 0.12 |
| GGAAAGCAAUAUUACGCGUG | -0.941 ± 0.054 | -0.486 ± 0.071 |
| GGAAAGCAAUAUUACGGCAU | -1.03 ± 0.13 | -0.672 ± 0.15 |
| GGAAAGCAAUAUUACGGGAC | -2.53 ± 0.1 | -1.18 ± 0.11 |
| GGAAAGCAAUAUUACGGGUU | -2.99 ± 0.13 | -0.727 ± 0.11 |
| GGAAAGCAAUAUUACGGUUG | – | -1.2 ± 0.26 |
| GGAAAGCAAUAUUACGGUUU | -1.02 ± 0.061 | -0.46 ± 0.082 |
| GGAAAGCAAUAUUACGUAGA | -0.977 ± 0.1 | -1.4 ± 0.17 |
| GGAAAGCAAUAUUACGUAUG | -2.27 ± 0.1 | -2.04 ± 0.15 |
| GGAAAGCAAUAUUACGUCGC | -0.897 ± 0.17 | -0.926 ± 0.2 |
| GGAAAGCAAUAUUACGUGGC | -2.85 ± 0.38 | -2.46 ± 0.34 |

| Sequence | self-splicing fitness (ln) (30 °C) | self-splicing fitness (ln) (37 °C) |
| --- | --- | --- |
| GGAAAGCAAUAUUACGUGGG | -3.72 ± 0.19 | -1.47 ± 0.11 |
| GGAAAGCAAUAUUACGUUCA | 0.00884 ± 0.082 | 0.0862 ± 0.13 |
| GGAAAGCAAUAUUACGUUCG | -0.612 ± 0.097 | -0.624 ± 0.14 |
| GGAAAGCAAUAUUACGUUCU | -3.94 ± 0.21 | -3.07 ± 0.23 |
| GGACAGCAAUAUUACGAAGG | -3.1 ± 0.24 | -2.38 ± 0.39 |
| GGACAGCAAUAUUACGACAU | -0.378 ± 0.012 | -0.0143 ± 0.032 |
| GGACAGCAAUAUUACGAGAA | -2.45 ± 0.36 | -1.54 ± 0.25 |
| GGACAGCAAUAUUACGAGAG | -3.81 ± 0.18 | -2.09 ± 0.11 |
| GGACAGCAAUAUUACGAGCA | -0.424 ± 0.47 | -0.637 ± 0.4 |
| GGACAGCAAUAUUACGAGCG | -0.482 ± 0.081 | 0.0554 ± 0.12 |
| GGACAGCAAUAUUACGAUGG | -2.41 ± 0.1 | -2.05 ± 0.13 |
| GGACAGCAAUAUUACGAUUG | -1.09 ± 0.12 | -1.15 ± 0.19 |
| GGACAGCAAUAUUACGCCAA | -0.506 ± 0.14 | -1.24 ± 0.23 |
| GGACAGCAAUAUUACGCCUA | -0.825 ± 0.11 | -0.478 ± 0.11 |
| GGACAGCAAUAUUACGCGAA | -1.07 ± 0.08 | -0.612 ± 0.094 |
| GGACAGCAAUAUUACGGACC | -1.35 ± 0.19 | -1.02 ± 0.23 |
| GGACAGCAAUAUUACGGCCG | -0.0795 ± 0.14 | -0.000523 ± 0.19 |
| GGACAGCAAUAUUACGGGCG | -0.664 ± 0.075 | -0.0669 ± 0.09 |
| GGACAGCAAUAUUACGGUCU | -3.84 ± 0.24 | -1.18 ± 0.2 |
| GGACAGCAAUAUUACGUCGG | -0.852 ± 0.099 | -0.674 ± 0.14 |
| GGACAGCAAUAUUACGUGAG | 0.177 ± 0.058 | -0.254 ± 0.062 |
| GGACAGCAAUAUUACGUGCG | -0.326 ± 0.064 | 0.365 ± 0.087 |
| GGACAGCAAUAUUACGUUCA | -0.478 ± 0.086 | -0.434 ± 0.1 |
| GGACAGCAAUAUUACGUUUC | -3.16 ± 0.28 | -1.82 ± 0.32 |
| GGAGAGCAAUAUUACGAGCA | -1.17 ± 0.35 | -1.86 ± 0.34 |

| Sequence | self-splicing fitness (ln) (30 °C) | self-splicing fitness (ln) (37 °C) |
| --- | --- | --- |
| GGAGAGCAAUAUUACGAGUC | -3.63 ± 0.35 | – |
| GGAGAGCAAUAUUACGAUAA | – | -0.957 ± 0.43 |
| GGAGAGCAAUAUUACGCAUC | -3.08 ± 0.28 | -2.85 ± 0.43 |
| GGAGAGCAAUAUUACGCGUA | -2.02 ± 0.37 | -1.42 ± 0.27 |
| GGAGAGCAAUAUUACGGAAG | -2.47 ± 0.32 | -0.843 ± 0.41 |
| GGAGAGCAAUAUUACGGCAU | -2.03 ± 0.22 | 0.206 ± 0.22 |
| GGAGAGCAAUAUUACGGCCG | -3.74 ± 0.42 | -2.16 ± 0.42 |
| GGAGAGCAAUAUUACGGGCA | -2.49 ± 0.24 | -1.22 ± 0.21 |
| GGAGAGCAAUAUUACGGUGA | -2.27 ± 0.2 | -1.46 ± 0.21 |
| GGAGAGCAAUAUUACGUACU | -1.1 ± 0.12 | -1.16 ± 0.14 |
| GGAGAGCAAUAUUACGUCAA | -2.93 ± 0.31 | -3.54 ± 0.46 |
| GGAGAGCAAUAUUACGUCCA | -2.78 ± 0.2 | -0.872 ± 0.18 |
| GGAGAGCAAUAUUACGUGAA | -0.689 ± 0.2 | -2.2 ± 0.4 |
| GGAGAGCAAUAUUACGUUAU | -3.27 ± 0.23 | -2.98 ± 0.32 |
| GGAUAGCAAUAUUACGAAGU | -2.68 ± 0.29 | -2.02 ± 0.25 |
| GGAUAGCAAUAUUACGAAUG | -2.73 ± 0.18 | -1.87 ± 0.2 |
| GGAUAGCAAUAUUACGACCA | -0.97 ± 0.092 | -0.392 ± 0.13 |
| GGAUAGCAAUAUUACGACGC | -0.274 ± 0.11 | 0.262 ± 0.12 |
| GGAUAGCAAUAUUACGAGGU | -2.75 ± 0.29 | -2.7 ± 0.18 |
| GGAUAGCAAUAUUACGAGUA | -2.54 ± 0.48 | -1.14 ± 0.16 |
| GGAUAGCAAUAUUACGAUAA | -1.51 ± 0.19 | -1.46 ± 0.2 |
| GGAUAGCAAUAUUACGCACA | -0.523 ± 0.12 | 0.321 ± 0.14 |
| GGAUAGCAAUAUUACGCCGG | – | -1.28 ± 0.42 |
| GGAUAGCAAUAUUACGCGAG | -1.38 ± 0.15 | -1.16 ± 0.14 |
| GGAUAGCAAUAUUACGCGUU | -1.98 ± 0.42 | -2.06 ± 0.47 |

| Sequence | self-splicing fitness (ln) (30 °C) | self-splicing fitness (ln) (37 °C) |
| --- | --- | --- |
| GGAUAGCAAUAUUACGCUCA | 0.156 ± 0.15 | -0.278 ± 0.15 |
| GGAUAGCAAUAUUACGGAGA | -2.79 ± 0.26 | -2.33 ± 0.3 |
| GGAUAGCAAUAUUACGGCAA | -0.818 ± 0.19 | -0.178 ± 0.2 |
| GGAUAGCAAUAUUACGGCUG | -0.385 ± 0.14 | -0.733 ± 0.18 |
| GGAUAGCAAUAUUACGGGAC | -2.5 ± 0.24 | -2.15 ± 0.17 |
| GGAUAGCAAUAUUACGGGAU | -3.03 ± 0.27 | -2.39 ± 0.21 |
| GGAUAGCAAUAUUACGUAAC | -1.66 ± 0.15 | -0.538 ± 0.16 |
| GGAUAGCAAUAUUACGUAGA | -1.01 ± 0.17 | -1.4 ± 0.21 |
| GGAUAGCAAUAUUACGUAUU | -3.05 ± 0.2 | -2.21 ± 0.28 |
| GGAUAGCAAUAUUACGUCAU | -2.02 ± 0.11 | -0.395 ± 0.12 |
| GGCAAGCAAUAUUACGAAGA | -2.24 ± 0.18 | -0.478 ± 0.12 |
| GGCAAGCAAUAUUACGACCU | -0.895 ± 0.12 | -0.997 ± 0.12 |
| GGCAAGCAAUAUUACGCAAA | -0.878 ± 0.092 | -1.2 ± 0.097 |
| GGCAAGCAAUAUUACGCACC | -2.15 ± 0.32 | -2.31 ± 0.24 |
| GGCAAGCAAUAUUACGCAGC | – | -2.27 ± 0.28 |
| GGCAAGCAAUAUUACGCAGG | -2.1 ± 0.12 | -2.29 ± 0.2 |
| GGCAAGCAAUAUUACGCAUU | -0.374 ± 0.062 | 0.591 ± 0.081 |
| GGCAAGCAAUAUUACGCUGG | -3.31 ± 0.23 | -2.68 ± 0.28 |
| GGCAAGCAAUAUUACGGAAA | -1.55 ± 0.12 | -1.27 ± 0.13 |
| GGCAAGCAAUAUUACGGCGU | -0.154 ± 0.088 | 0.316 ± 0.12 |
| GGCAAGCAAUAUUACGGGCC | -2.85 ± 0.39 | – |
| GGCAAGCAAUAUUACGGUCG | -0.22 ± 0.072 | 0.553 ± 0.099 |
